Experimental data published in US20190218304A1 (INNATE PHARMA, published 2019).

T1: CD39 mutant 5 (human, UniProt P49961 1-510)
T1 construct: Expressed on transfected Hek-293T cells; also called M5
T1 chain: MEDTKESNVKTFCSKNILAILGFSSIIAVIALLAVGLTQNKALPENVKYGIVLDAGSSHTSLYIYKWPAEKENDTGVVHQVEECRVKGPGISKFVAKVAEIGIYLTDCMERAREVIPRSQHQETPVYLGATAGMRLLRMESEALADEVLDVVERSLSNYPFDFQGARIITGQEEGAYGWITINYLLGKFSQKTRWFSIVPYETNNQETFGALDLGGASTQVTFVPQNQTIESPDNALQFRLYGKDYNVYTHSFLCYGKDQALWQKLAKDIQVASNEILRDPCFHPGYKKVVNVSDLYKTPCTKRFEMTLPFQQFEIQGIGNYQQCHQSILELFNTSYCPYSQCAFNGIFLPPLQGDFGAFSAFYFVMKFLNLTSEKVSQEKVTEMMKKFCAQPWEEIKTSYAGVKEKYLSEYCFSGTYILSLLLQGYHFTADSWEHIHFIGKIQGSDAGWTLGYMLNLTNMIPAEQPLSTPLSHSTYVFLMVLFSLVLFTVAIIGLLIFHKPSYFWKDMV

T2: CD39 mutant 15 (human, UniProt P49961 1-510)
T2 construct: Expressed on transfected Hek-293T cells; also called M15
T2 chain: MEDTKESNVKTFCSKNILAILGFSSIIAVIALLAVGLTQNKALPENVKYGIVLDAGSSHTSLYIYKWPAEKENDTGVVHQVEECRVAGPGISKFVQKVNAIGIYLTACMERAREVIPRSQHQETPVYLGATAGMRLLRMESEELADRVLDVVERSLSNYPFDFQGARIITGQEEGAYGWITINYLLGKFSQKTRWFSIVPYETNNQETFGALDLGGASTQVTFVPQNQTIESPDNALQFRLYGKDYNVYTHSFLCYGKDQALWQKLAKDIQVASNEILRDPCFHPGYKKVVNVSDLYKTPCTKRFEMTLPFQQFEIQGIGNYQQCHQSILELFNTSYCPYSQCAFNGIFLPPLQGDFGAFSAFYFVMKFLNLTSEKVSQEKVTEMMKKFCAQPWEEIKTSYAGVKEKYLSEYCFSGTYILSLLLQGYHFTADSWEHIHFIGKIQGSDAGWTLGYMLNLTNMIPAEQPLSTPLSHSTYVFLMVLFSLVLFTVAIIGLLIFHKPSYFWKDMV

T3: CD39 mutant 19 (human, UniProt P49961 1-510)
T3 construct: Expressed on transfected Hek-293T cells; also called M19
T3 chain: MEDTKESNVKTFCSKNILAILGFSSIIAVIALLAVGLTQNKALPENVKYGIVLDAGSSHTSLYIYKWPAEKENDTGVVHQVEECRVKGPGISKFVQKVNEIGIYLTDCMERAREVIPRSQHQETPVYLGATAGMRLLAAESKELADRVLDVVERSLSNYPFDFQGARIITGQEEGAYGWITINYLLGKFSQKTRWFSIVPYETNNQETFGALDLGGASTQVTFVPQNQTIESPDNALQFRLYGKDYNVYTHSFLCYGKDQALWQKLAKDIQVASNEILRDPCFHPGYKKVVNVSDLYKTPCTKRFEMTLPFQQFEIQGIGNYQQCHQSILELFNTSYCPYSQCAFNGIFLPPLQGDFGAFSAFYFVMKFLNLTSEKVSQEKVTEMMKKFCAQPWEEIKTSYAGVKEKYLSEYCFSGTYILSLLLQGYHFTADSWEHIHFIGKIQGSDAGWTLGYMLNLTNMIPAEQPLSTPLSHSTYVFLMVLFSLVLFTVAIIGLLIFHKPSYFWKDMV

T4: CD39 mutant 11 (human, UniProt P49961 1-510)
T4 construct: Expressed on transfected Hek-293T cells
T4 sequence: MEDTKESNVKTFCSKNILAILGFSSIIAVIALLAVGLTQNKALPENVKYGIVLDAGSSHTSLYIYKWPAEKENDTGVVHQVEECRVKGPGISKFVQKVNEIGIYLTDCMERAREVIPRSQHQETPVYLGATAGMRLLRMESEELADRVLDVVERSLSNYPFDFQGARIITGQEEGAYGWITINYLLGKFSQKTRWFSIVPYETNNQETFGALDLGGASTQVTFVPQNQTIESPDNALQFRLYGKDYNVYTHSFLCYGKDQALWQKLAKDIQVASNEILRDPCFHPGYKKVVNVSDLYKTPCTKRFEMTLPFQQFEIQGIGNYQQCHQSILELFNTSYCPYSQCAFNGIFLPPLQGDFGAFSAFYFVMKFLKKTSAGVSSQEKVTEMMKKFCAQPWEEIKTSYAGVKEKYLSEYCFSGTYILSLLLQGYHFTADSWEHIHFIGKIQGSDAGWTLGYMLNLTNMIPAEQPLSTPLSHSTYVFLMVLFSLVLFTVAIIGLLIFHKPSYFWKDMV

T5: human CD39 expressed on cells (human, UniProt P49961 1-510)
T5 construct: On CHO transfectants, HEK-293T transfectants (wild type), Ramos lymphoma cells or monocyte-derived dendritic cells, as named under assay; also called huCD39; CHO-huCD39
T5 sequence: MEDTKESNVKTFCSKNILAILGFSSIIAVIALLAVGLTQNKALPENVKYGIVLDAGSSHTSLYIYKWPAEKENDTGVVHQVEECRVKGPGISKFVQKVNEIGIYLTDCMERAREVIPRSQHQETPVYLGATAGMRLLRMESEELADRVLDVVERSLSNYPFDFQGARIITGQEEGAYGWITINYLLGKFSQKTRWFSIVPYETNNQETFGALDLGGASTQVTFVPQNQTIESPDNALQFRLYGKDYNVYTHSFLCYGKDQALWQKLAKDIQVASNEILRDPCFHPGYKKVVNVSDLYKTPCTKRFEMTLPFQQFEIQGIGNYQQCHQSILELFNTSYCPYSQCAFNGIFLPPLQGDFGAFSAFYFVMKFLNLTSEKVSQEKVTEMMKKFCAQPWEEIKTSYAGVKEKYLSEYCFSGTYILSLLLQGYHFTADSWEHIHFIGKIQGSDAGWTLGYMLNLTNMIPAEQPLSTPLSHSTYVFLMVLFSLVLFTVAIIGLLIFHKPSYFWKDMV


Assays:
[1] = biological target: T1, CD39 mutant 5; test: flow cytometry on transfected Hek-293T cells
Protocol: (§1) Mutants were transfected in Hek-293T cells, as shown in the table 1, using numbering of SEQ ID NO: 1. Dose-ranges of test antibodies (10-2.5-0.625-0.1563-0.0391-0.0098-0.0024-0.0006 μg/ml) are tested on the 20 generated mutants by flow cytometry.

[2] = biological target: T2, CD39 mutant 15; test: flow cytometry on transfected Hek-293T cells
Protocol: as §1

[3] = biological target: T3, CD39 mutant 19; test: flow cytometry on transfected Hek-293T cells
Protocol: as §1

[4] = biological target: T4, CD39 mutant 11; test: flow cytometry on transfected Hek-293T cells
Protocol: as §1

[5] = biological target: T5, human CD39 expressed on cells; test: flow cytometry on Hek-293T cells transfected with wild-type CD39 (unstained cells, US: 10,3) [panel WT]
[6] = biological target: T1, CD39 mutant 5; test: flow cytometry on Hek-293T cells transfected with CD39 mutant 5 [panel M5]
[7] = biological target: T3, CD39 mutant 19; test: flow cytometry on Hek-293T cells transfected with CD39 mutant 19 [panel M19]
[8] = biological target: T2, CD39 mutant 15; test: flow cytometry on Hek-293T cells transfected with CD39 mutant 15 [panel M15]

| binding result [1] | binding result [2] | binding result [3] | Median : Comp-Alexa Fluor 647-A [5] | binding result [6] | binding result [7] | binding result [8] | Binder | binding result [4] |
| --- | --- | --- | --- | --- | --- | --- | --- | --- |
| binds | binds | binds | – | – | – | – | antibody I-399 (antibody, V domains shown, Purified from hybridoma supernatant with protein A for screening) VH: PVQLQQPGAEVVMPGASVKLSCKASGYTFTSFWMNWMRQRPGQGLEWIGEIDPSDFYTNSNQRFKGKATLTVDKSSSTAYMQLSSLTSEDSAVYFCARGDFGWYFDVWGTGTSVTVSS VL: EIVLTQSPTTMTSSPGEKITFTCSASSSINSNYLHWYQQKPGFSPKLLIYRTSNLASGVPTRFSGSGSGTSYSLTIGTMEAEDVATYYCQQGSSLPRTFGGGTKLEIK | no binding (tested: 10 µg/ml (top of dose range)) |
| – | – | – | 4240 | no binding | no binding | – | antibody I-395 (antibody, V domains shown, Purified from hybridoma supernatant with protein A for screening) VH: EVQLQQSGPELVKPGASVRMSCKASGYTFTDYNMHWVKKNHGKGLEWIGYINPNNGGTTYNQKFKGKATLTVNTSSKTAYMELRSLTSEDSAVYYCTRGGTRFASWGQGTLVTVSA VL: not shown | – |
| – | – | – | 4340 | binds | binds | no binding | antibody I-396 (antibody, V domains shown, Purified from hybridoma supernatant with protein A for screening) VH: EVQLQQSGAELVKPGASVKLSCIVSGFNIKDTYINWVKQRPEQGLEWIGRIDPANGNTKYDPKFQGKATMTSDTSSNTAYLHLSSLTSDDSAVYYCARWGYDDEEADYFDSWGQGTTLTVSS VL: not shown | – |
